Measurements: patent publication US20250277030A1 (Zymeworks, published 2025)

What was measured:
[1] = target: T1, human sodium-dependent phosphate transporter 2B (NaPi2b) (human, UniProt O95436 1-690); experiment: flow cytometry, IGROV-1 cells (endogenous NaPi2b)
T1 construct: UniProt ID is given as 095436 [sic]; also called hNaPi2b; Hu NaPi2b
T1 sequence: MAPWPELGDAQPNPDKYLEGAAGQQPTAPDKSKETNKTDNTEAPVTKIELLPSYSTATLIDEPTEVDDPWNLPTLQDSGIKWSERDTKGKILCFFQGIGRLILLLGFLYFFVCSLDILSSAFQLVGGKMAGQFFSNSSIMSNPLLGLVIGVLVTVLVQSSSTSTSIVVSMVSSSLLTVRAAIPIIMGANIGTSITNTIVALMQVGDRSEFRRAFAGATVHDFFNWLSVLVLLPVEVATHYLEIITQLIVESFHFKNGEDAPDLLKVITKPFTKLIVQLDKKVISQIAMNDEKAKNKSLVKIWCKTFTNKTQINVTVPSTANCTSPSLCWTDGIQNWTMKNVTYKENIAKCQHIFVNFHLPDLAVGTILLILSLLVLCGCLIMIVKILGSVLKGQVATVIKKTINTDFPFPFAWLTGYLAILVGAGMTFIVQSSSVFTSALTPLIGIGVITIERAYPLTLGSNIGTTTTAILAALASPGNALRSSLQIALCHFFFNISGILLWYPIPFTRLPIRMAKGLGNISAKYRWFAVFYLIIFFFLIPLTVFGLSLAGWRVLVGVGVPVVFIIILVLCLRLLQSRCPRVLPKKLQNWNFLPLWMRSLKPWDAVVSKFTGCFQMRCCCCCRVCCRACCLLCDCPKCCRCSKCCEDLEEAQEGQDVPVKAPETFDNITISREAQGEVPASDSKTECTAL
Description: (§1) Briefly, HEK293-6e cells were transfected for ˜24 hours to transiently express human NaPi2b, cynomolgus or mouse NaPi2b, at 1 μg of DNA per 1 million cells. Following transfection, 50,000 cells per well were seeded in V-bottom 96-well plates and incubated with 200 nM of primary antibody for 18-24 hours at 4° C. to prevent internalization. Post-incubation, cells were washed and stained with anti-Human IgG Fc AF647 conjugate (Jackson Immuno Research Labs, West Grove, PA, Cat. No. 109-605-098, Lot. No. 124868) at 4° C. for 1 hour. Following staining and washing, fluorescence was detected by flow cytometry on BD LSRFortessa™ Cell Analyzer (BD Biosciences, Franklin Lake, NJ) with 10,000 minimum events collected per well. The AF647/APC-A GeoMean (fluorescence signal geometric mean, proportional to anti-Human AF647 binding) was calculated for the live singlet cell population for each primary antibody using FlowJo™ v8 software (BD Biosciences, Franklin Lake, NJ). The Bmax and Kd of each primary antibody were calculated using GraphPad Prism Version 9 (GraphPad Software, San Diego, CA)
The ability of ADCs to bind to cells expressing NaPi2b was assessed. […] Binding to endogenous high NaPi2b-expressing cell lines IGROV-1 and HCC-78 was assessed by flow cytometry according to methods described in Example 5.

[2] = target: T2, cynomolgus monkey NaPi2b (cynomolgus monkey, UniProt O95436 1-690 (human entry)); experiment: flow cytometry, HEK293-6e cells transfected with cynomolgus NaPi2b
T2 construct: Transiently expressed on HEK293-6e cells; also called Cyno NaPi2b
T2 chain: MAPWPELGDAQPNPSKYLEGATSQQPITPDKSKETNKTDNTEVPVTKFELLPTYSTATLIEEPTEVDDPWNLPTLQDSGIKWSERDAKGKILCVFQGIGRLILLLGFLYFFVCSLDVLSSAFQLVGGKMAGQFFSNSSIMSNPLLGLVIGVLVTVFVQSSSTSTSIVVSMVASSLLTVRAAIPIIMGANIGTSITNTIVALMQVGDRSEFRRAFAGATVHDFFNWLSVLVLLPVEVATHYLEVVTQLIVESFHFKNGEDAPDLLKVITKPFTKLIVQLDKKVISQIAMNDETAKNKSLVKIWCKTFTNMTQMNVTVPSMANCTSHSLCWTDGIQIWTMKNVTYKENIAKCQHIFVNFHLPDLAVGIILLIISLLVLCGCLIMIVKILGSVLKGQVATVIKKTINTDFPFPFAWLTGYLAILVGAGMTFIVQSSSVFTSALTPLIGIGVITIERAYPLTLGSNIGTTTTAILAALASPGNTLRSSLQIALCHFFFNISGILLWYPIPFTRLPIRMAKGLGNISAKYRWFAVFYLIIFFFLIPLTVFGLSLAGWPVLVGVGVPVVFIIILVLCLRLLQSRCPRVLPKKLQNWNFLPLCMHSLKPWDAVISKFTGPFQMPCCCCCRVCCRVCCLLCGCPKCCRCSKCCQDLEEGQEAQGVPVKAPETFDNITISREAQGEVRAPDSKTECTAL
Description: (§2) The binding cross-reactivity of humanized antibody variant v29456 to human, cynomolgus and mouse NaPi2b was assessed by flow cytometry using HEK293-6e transfected cells.
as §1

[3] = target: T3, mouse NaPi2b (mouse, UniProt Q9DBP0 1-697); experiment: flow cytometry, HEK293-6e cells transfected with mouse NaPi2b; apparent Kd
T3 construct: Transiently expressed on HEK293-6e cells; also called Ms NaPi2b
T3 sequence: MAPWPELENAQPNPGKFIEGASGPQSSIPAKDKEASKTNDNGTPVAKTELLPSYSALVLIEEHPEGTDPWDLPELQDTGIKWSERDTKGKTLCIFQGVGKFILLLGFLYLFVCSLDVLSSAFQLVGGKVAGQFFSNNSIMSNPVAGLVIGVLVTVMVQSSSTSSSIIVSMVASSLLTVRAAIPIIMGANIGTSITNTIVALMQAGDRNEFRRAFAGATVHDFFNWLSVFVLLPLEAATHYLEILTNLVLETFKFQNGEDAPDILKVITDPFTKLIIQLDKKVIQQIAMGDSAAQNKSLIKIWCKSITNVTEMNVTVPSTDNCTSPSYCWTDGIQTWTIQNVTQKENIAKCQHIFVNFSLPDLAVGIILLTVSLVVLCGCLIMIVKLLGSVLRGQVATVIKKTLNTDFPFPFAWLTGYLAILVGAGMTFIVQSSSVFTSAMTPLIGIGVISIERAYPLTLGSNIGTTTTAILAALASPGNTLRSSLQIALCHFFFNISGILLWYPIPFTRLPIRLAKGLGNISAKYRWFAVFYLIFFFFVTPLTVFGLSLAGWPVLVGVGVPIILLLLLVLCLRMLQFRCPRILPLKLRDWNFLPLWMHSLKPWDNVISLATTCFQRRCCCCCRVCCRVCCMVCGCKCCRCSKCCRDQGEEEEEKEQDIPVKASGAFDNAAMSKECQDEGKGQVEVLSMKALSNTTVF
Description: as §2, §1

[4] = target: T2, cynomolgus monkey NaPi2b; experiment: flow cytometry, HEK293-6e cells transfected with cynomolgus NaPi2b; apparent Kd
Description: as §2, §1

Bmax (MFI) [1]: 78100 MFI
Bmax (APC-A GeoMean) [2]: 2010 APC-A GeoMean
fold lower apparent Kd than v18992 (MX35) [2]: 10 fold
fold lower apparent Kd than v18993 (lifastuzumab) [2]: 2 fold
Kd [3]: 10.6 nM
Kd [4]: 3.2 nM
B1: v29456 humanized anti-NaPi2b antibody (H1L2) (antibody, human IgG1, kappa)
heavy: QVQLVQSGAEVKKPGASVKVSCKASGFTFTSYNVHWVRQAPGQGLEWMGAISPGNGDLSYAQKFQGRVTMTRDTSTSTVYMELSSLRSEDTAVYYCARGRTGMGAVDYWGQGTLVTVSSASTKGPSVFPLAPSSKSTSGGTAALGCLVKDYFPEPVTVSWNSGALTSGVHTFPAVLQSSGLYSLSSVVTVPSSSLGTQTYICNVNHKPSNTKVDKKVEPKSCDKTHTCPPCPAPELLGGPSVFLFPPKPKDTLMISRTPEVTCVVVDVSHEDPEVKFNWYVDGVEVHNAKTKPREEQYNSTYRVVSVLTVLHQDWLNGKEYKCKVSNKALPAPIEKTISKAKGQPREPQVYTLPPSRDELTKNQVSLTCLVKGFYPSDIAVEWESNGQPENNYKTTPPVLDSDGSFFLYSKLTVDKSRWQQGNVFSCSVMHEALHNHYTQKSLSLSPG
light: DVQMTQSPSSLSASVGDRVTITCRASQDVYSYLNWYQQKPGKAVKLLIYYTSRLQSGVPSRFSGSGSGTDYTLTISSLQPEDFATYYCQQYNIFPWTFGQGTKLEIKRTVAAPSVFIFPPSDEQLKSGTASVVCLLNNFYPREAKVQWKVDNALQSGNSQESVTEQDSKDSTYSLSSTLTLSKADYEKHKVYACEVTHQGLSSPVTKSFNRGEC
